Results on two molecules are retold here after US20220259318A1 (Hoffmann-La Roche, published 2022).

In test [1] the target is T1, human GPRC5D (human, UniProt Q9NZD1 1-345). As to the kind of experiment: cell-based or functional assay.
In test [2] the target is T1, human GPRC5D. As to the kind of experiment: cell-based or functional assay. This is another data set of the same source.
In test [3] the target is T1, human GPRC5D. Kind of test: cell-based or functional assay. This is another data set of the same source.
Test [4] addresses T1, human GPRC5D. Kind of test: cell-based or functional assay. The source holds these as a separate data set.
The target in test [5] is T1, human GPRC5D. Kind of test: flow cytometry on OPM-2 cells, assay replicate 1. How it is done:
(§1) Cells were re-suspended in PBS at 0.5 Mio cells per ml. Next, 0.05 Mio cells were plated per well of a round-bottom 96-well-plate, centrifuged and supernatants were discarded. Cells were stained with zombie aqua viability stain (BioLegend #423102, pre-diluted 1:400), containing Fc blocking (BioLegend #422302, prediluted 1:400) for 20 minutes in a total volume of 50 ul per well. […] Assay plates were centrifuged and supernatants were discarded.
(§2) Thereafter, cells were resuspended by smooth vortexing and incubated for another 30 min at 4° C. in a total of 25 μl per well, containing 500 nM of the secondary antibody (aPGLALA mulG2b Alexa 647, produced inhouse) in FACS buffer. Cells were washed once and analyzed on a BD flow cytometer, equipped with FACS Diva. Binding curves and EC50 values were obtained using GraphPadPrism6. The EC50 values of assay replicate 1 correspond to the graphs shown in FIG. 25A, FIG. 25B and FIG. 25C. The EC50 values of assay replicate 2 correspond to the graphs shown in FIG. 25D, FIG. 25E and FIG. 25F. The EC50 values of assay replicate 3 correspond to the graphs shown in FIG. 25G, FIG. 25H and FIG. 25I.

In test [6] the target is T1, human GPRC5D. Kind of test: flow cytometry on OPM-2 cells, assay replicate 2. The protocol:
as §1, §2
Background: In flow cytometry, cells or beads pass a laser one at a time.

Test [7] concerns the target T1, human GPRC5D. As to the kind of experiment: flow cytometry on OPM-2 cells, assay replicate 3. The protocol:
as §1, §2

Test [8] has as its target T1, human GPRC5D. As to the kind of experiment: flow cytometry on NCI-H929 cells, assay replicate 1. How it is done:
as §1, §2

Test [9] has as its target T1, human GPRC5D. Kind of test: flow cytometry on NCI-H929 cells, assay replicate 2. The protocol: as §1, §2
Test [10] deals with T1, human GPRC5D. As to the kind of experiment: flow cytometry on NCI-H929 cells, assay replicate 3. How it is done:
as §1, §2

In test [11] the target is T1, human GPRC5D. As to the kind of experiment: flow cytometry on RPMI-8226 cells, assay replicate 1. The protocol: as §1, §2
In test [12] the target is T1, human GPRC5D. Kind of test: flow cytometry on RPMI-8226 cells, assay replicate 2. The protocol:
as §1, §2

Test [13] concerns the target T1, human GPRC5D. As to the kind of experiment: flow cytometry on RPMI-8226 cells, assay replicate 3. How it is done:
as §1, §2

For test [14], the target named is T1, human GPRC5D. Kind of test: flow cytometry on NCI-H929 cells; paragraph 550 says these values were falsely calculated by a factor of 10 (too low). How it is done:
(§3) To measure the binding to GPRC5D, we performed a flow cytometry-based binding assay on reported multiple myeloma cell lines (Lombardi et al., Molecular characterization of human multiple myeloma cell lines by integrative genomics: insights into the biology of the disease; Genes Chromosomes Cancer. 2007 March; 46(3):226-38). The cell line NCI-H929 (ATCC® CRL-9068) was cultured in RPMI 1640 with Glutamax medium (Gibco) supplemented with 10% FBS, 1× Penicillin/Streptomycin (Gibco), 1× Sodium Pyruvate (Gibco) and 50 μM beta-Mercaptoethanol (Gibco). Jurkat-NFAT reporter cells (a CD3-expressing human acute lymphatic leukemia reporter cell line with a NFAT promoter, GloResponse Jurkat NFAT-RE-luc2P, Promega #CS176501) were cultured in RPMI 1640, containing 2 g/l Glucose, 2 g/l NaHCO₃, 10% FCS, 25 mM HEPES, 2 mM L-Glutamine, 1×NEAA, 1× Sodium-pyruvate and 200 μg/ml Hygromycin B.
(§4) Flow cytometry acquisition was performed on a custom-designed BD Biosciences Fortessa and analyzed using BD Diva. EC50 values were calculated, using GraphPad Prism software.

A further test concerns the target T2, human CD3 (human, UniProt P07766 23-207).
T2 construct: Expressed on Jurkat-NFAT reporter cells as part of the TCR/CD3 complex; also called hCD3; CD3 epsilon
Kind of test: flow cytometry on Jurkat-NFAT cells; paragraph 550 says these values were falsely calculated by a factor of 10 (too low). How it is done:
as §3, §4

Test [15] has as its target T3, BCMA (UniProt Q02223 1-184, limits assumed).
T3 sequence (looked up): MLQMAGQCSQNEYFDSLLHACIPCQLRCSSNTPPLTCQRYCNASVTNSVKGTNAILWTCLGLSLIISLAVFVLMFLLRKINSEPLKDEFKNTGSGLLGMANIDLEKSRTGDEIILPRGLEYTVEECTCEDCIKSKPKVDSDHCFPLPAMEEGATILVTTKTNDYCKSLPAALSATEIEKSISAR
Kind of test: cell-based or functional assay.

Test [16] concerns the target T3, BCMA. Kind of test: cell-based or functional assay. This is another data set of the same source.
The target of test [17] is T3, BCMA. Kind of test: cell-based or functional assay. The source holds these as a separate data set.
The target in test [18] is T3, BCMA. As to the kind of experiment: cell-based or functional assay. The source holds these as a separate data set.

Numbering of substitutions follows the chain as printed.

T1 sequence (Q9NZD1 whole entry): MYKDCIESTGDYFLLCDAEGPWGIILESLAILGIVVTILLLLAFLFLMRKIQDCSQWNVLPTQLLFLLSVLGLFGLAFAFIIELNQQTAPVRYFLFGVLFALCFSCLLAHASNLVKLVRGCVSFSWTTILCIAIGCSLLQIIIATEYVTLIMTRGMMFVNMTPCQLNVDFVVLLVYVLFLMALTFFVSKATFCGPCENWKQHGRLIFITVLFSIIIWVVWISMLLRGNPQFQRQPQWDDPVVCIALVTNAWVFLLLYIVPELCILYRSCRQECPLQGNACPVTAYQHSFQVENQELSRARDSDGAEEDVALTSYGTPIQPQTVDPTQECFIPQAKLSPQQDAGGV
T2 sequence (P07766 23-207 limits assumed): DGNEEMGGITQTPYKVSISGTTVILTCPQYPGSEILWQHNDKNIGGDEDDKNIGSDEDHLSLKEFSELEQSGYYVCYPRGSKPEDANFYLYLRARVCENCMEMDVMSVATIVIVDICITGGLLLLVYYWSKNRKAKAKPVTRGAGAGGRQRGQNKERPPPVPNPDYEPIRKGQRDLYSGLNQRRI

B1: 5E11(VH1c + VL2b)-C122-TCB (P1AE6625) (bispecific antibody, human IgG1, kappa, L234A L235A)
light 1: EIVLTQSPGTLSLSPGERATLSCRASQSVSISGINLMNWYQQKPGQQPKLLIYHASILASGIPDRFSGSGSGTDFTLTISRLEPEDFAVYYCQQTRESPLTFGQGTRLEIKRTVAAPSVFIFPPSDRKLKSGTASVVCLLNNFYPREAKVQWKVDNALQSGNSQESVTEQDSKDSTYSLSSTLTLSKADYEKHKVYACEVTHQGLSSPVTKSFNRGEC
light 2: EVQLLESGGGLVQPGGSLRLSCAASGFQFSSYAMNWVRQAPGKGLEWVSRIRSKYNNYATYYADSVKGRFTISRDDSKNTLYLQMNSLRAEDTAVYYCVRHTTFPSSYVSYYGYWGQGTLVTVSSASVAAPSVFIFPPSDEQLKSGTASVVCLLNNFYPREAKVQWKVDNALQSGNSQESVTEQDSKDSTYSLSSTLTLSKADYEKHKVYACEVTHQGLSSPVTKSFNRGEC
heavy 1: EVQLLESGGGLVQPGGSLRLSCAASGFTFSKYAMAWVRQAPGKGLEWVASISTGGVNTYYADSVKGRFTISRDNSKNTLYLQMNSLRAEDTAVYYCATHTGDYFDYWGQGTMVTVSSASTKGPSVFPLAPSSKSTSGGTAALGCLVEDYFPEPVTVSWNSGALTSGVHTFPAVLQSSGLYSLSSVVTVPSSSLGTQTYICNVNHKPSNTKVDEKVEPKSCDKTHTCPPCPAPEAAGGPSVFLFPPKPKDTLMISRTPEVTCVVVDVSHEDPEVKFNWYVDGVEVHNAKTKPREEQYNSTYRVVSVLTVLHQDWLNGKEYKCKVSNKALGAPIEKTISKAKGQPREPQVCTLPPSRDELTKNQVSLSCAVKGFYPSDIAVEWESNGQPENNYKTTPPVLDSDGSFFLVSKLTVDKSRWQQGNVFSCSVMHEALHNHYTQKSLSLSPGK
heavy 2: not shown
notes: 2+1 TCB: LC1 (anti-GPRC5D), LC2 (anti-CD3 crossed), HC1 Fc hole, HC2 Fc knob
In general, EC50 refers to the concentration that produces a half-maximal response. In the case of B1, the “AUC, activation of Jurkat-NFAT reporter cells in presence of RPMI-8226 cells” value with human GPRC5D [1] came out at 572000. Moreover, the “EC50 (pM), activation of Jurkat-NFAT reporter cells in presence of RPMI-8226 cells” value in the test with human GPRC5D [1] was 40 pM. Moreover, the “EC50 (pM), TCB-mediated tumor cell lysis, AMO-1” value with human GPRC5D [2] was 8.3 pM. Further, in the test with human GPRC5D [2], the “EC50 (pM), TCB-mediated tumor cell lysis, IM-9” value came to 267 pM. Moreover, in the test with human GPRC5D [2], the “EC50 (pM), TCB-mediated tumor cell lysis, LP-1” value amounted to 7.99 pM. Further, in the test with human GPRC5D [2], the “EC50 (pM), TCB-mediated tumor cell lysis, NCI-H929” value is 0.597 pM. Moreover, the “AUC, TCB-mediated tumor cell lysis, AMO-1” value in the test with human GPRC5D [3] stood at 8.01e+07. Besides, the “AUC, TCB-mediated tumor cell lysis, IM-9” value in the test with human GPRC5D [3] was 9.27e+06. In the test with human GPRC5D [3], the “AUC, TCB-mediated tumor cell lysis, LP-1” value was 1.54e+07. The “AUC, TCB-mediated tumor cell lysis, NCI-H929” value with human GPRC5D [3] was determined as 1.79e+07. The “EC50 (pM), activation of autologous T-cells (CD69 on CD8 T cells) with a primary MM sample” value with human GPRC5D [4] stood at 14.8 pM. Further, the EC50 in the test with human GPRC5D [5] was 34.5 nM; with human GPRC5D [6], 75.5 nM; in the test with human GPRC5D [7], 54.2 nM; in the test with human GPRC5D [8], 75.8 nM; with human GPRC5D [9], about 123 nM; with human GPRC5D [10], about 158 nM. Also, the EC50 in the test with human GPRC5D [11] is 26.8 nM; in the test with human GPRC5D [12], 20.4 nM; with human GPRC5D [13] it was 55 nM; with human GPRC5D [14] it was 1.15 nM; in the test with human CD3, 11.5 nM.

B2: BCMA-TCB (bispecific antibody, human IgG1, kappa, L234A L235A)
light 1: EIVLTQSPGTLSLSPGERATLSCRASQSVSAYYLAWYQQKPGQAPRLLMYDASIRATGIPDRFSGSGSGTDFTLTISRLEPEDFAVYYCQQYERWPLTFGQGTKVEIKRTVAAPSVFIFPPSDRKLKSGTASVVCLLNNFYPREAKVQWKVDNALQSGNSQESVTEQDSKDSTYSLSSTLTLSKADYEKHKVYACEVTHQGLSSPVTKSFNRGEC
light 2: B1 light 2 with Q28T, S31T, T102G, T103N, P105G, S106N, Y111W, Y112F, G113A
heavy 1: EVQLLESGGGLVQPGGSLRLSCAASGFTFSSYAMNWVRQAPGKGLEWVSAITASGGSTYYADSVKGRFTISRDNSKNTLYLQMNSLRAEDTAVYYCARYWPMSLWGQGTLVTVSSASTKGPSVFPLAPSSKSTSGGTAALGCLVEDYFPEPVTVSWNSGALTSGVHTFPAVLQSSGLYSLSSVVTVPSSSLGTQTYICNVNHKPSNTKVDEKVEPKSCDKTHTCPPCPAPEAAGGPSVFLFPPKPKDTLMISRTPEVTCVVVDVSHEDPEVKFNWYVDGVEVHNAKTKPREEQYNSTYRVVSVLTVLHQDWLNGKEYKCKVSNKALGAPIEKTISKAKGQPREPQVCTLPPSRDELTKNQVSLSCAVKGFYPSDIAVEWESNGQPENNYKTTPPVLDSDGSFFLVSKLTVDKSRWQQGNVFSCSVMHEALHNHYTQKSLSLSPGK
heavy 2: not shown
In the case of B2, in the test with BCMA [15], the “EC50 in vitro killing assay, AMO-1” value stood at 0.518 nM; the “EC50 in vitro killing assay, EJM” value is 0.132 nM; the “EC50 in vitro killing assay, L363” value came out at 0.127 nM; the “EC50 in vitro killing assay, MOLP-2” value came to 0.032 nM. Also, in the test with BCMA [15], the “EC50 in vitro killing assay, NCI-H929” value amounted to 0.311 nM; the “EC50 in vitro killing assay, OPM-2” value stood at 0.033 nM; the “EC50 in vitro killing assay, RPMI” value is 0.011 nM. In addition, in the test with BCMA [16], the “EC50 (pM), TCB-mediated tumor cell lysis, AMO-1” value is 137 pM; the “EC50 (pM), TCB-mediated tumor cell lysis, IM-9” value was 55.7 pM; the “EC50 (pM), TCB-mediated tumor cell lysis, LP-1” value was 76.4 pM; the “EC50 (pM), TCB-mediated tumor cell lysis, NCI-H929” value came to 171 pM. Also, in the test with BCMA [17], the “AUC, TCB-mediated tumor cell lysis, AMO-1” value came to 4.73e+07; the “AUC, TCB-mediated tumor cell lysis, IM-9” value was found to be 1.1e+07; the “AUC, TCB-mediated tumor cell lysis, LP-1” value came out at 1.11e+07; the “AUC, TCB-mediated tumor cell lysis, NCI-H929” value is 1.07e+07. Further, the “EC50 (pM), activation of autologous T-cells (CD69 on CD8 T cells) with a primary MM sample” value with BCMA [18] is 52.5 pM.
